Results as given in US20150309037A1.

Legend:
[1] = molecular target: GDNF family receptor alpha 1 (GFRA1) (UniProt P56159); test: cell-based or functional assay
[2] = molecular target: trans-membrane receptor kinase RET (UniProt P07949); test: cell-based or functional assay
Chain of trans-membrane receptor kinase RET (P07949 29-1114 limits assumed): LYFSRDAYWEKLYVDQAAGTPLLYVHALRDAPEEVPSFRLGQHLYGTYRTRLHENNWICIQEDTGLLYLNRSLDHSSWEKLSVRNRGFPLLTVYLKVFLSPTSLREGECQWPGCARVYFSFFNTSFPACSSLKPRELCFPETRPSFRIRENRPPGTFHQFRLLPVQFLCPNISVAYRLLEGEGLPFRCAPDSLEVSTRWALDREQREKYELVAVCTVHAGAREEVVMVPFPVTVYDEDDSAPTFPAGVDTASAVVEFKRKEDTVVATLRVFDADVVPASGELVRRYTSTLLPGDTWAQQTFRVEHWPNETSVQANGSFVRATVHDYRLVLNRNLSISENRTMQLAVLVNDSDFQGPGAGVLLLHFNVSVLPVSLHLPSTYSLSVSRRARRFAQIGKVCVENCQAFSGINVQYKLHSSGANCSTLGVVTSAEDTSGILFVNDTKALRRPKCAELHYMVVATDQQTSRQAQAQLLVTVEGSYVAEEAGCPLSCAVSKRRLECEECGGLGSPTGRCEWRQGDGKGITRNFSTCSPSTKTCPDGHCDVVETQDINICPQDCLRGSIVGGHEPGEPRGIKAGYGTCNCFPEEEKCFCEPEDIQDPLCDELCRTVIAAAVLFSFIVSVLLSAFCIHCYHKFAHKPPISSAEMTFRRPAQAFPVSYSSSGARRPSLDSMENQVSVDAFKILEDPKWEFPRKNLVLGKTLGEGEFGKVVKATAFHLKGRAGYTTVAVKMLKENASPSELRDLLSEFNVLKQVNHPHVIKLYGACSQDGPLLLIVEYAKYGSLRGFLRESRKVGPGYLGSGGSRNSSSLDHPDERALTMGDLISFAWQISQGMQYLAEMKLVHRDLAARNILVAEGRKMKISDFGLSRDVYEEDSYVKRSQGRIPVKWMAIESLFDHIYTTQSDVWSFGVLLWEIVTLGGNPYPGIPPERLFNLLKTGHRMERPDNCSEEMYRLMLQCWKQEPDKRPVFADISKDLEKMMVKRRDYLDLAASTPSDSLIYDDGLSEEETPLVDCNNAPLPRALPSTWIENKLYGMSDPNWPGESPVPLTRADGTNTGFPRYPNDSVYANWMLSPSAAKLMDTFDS

Chain of GDNF family receptor alpha 1 (GFRA1) (P56159 25-429 limits assumed): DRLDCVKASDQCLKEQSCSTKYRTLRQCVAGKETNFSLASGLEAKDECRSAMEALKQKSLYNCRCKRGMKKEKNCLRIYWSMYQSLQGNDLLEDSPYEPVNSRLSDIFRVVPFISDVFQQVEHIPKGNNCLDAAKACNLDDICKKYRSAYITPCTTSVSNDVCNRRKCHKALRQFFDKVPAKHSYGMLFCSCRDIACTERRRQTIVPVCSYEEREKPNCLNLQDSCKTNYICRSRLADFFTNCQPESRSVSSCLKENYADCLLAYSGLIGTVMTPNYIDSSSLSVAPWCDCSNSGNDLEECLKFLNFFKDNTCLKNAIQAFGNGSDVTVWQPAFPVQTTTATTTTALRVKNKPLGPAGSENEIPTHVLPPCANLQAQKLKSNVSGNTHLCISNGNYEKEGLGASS

- proliferation, GDNF concentration of maximum stimulation [1]: 10 ng/mL
- proliferation, GDNF concentration of maximum stimulation [2]: 10 ng/mL
Substance: glial cell line-derived neurotrophic factor (GDNF) (from UniProt P39905 78-211) (ligand)
